Values joined by “and” are separate entries in the source; they are usually repeats but may differ in a detail not shown here. Identical values can stand only once. Like-named read-outs stand apart in the source and are kept apart here.
What was measured:
HeLa-A3 cells = test: S100P-enhanced cell migration, HeLa-A3; assay type: cell-based, human; conditions: HeLa-A3, doxycycline 1 µg/ml, 24 h
Excerpt: (§1) Cell migration rate (%) = M/G × 100.

COS-7 S10 cells = test: Immunofluorescence of MTOC and EB3 bundles; assay type: cell-based, monkey; conditions: COS-7 S10, S100P induced
Procedure: Immunofluorescent staining was carried out as previously described. COS-7 S10 and MCF-7 cells were induced for 48 h prior to plating at 25,000 cells/well onto either untreated or fibronectin-coated (2.5 µg/cm^2) glass coverslips in a 24-well plate. After a further 48 h, cells were washed once in Cytoskeleton Buffer (CB: 150 mM NaCl, 5 mM MgC1_2, 5 mM EGTA, 5 mM glucose, 10 mM 2-(N-morpholino) ethanesulfonic acid, pH 6.1) prior to fixing with 3.7% (w/v) paraformaldehyde in CB at 37°C for 20 min. Cells were permeabilised with 1% (v/v) Triton X-100 in CB for 2 min and blocked with 5% (v/v) goat serum in CB for 60 min before incubation with rabbit anti-EB3 (Abcam ab157217) and mouse anti-α-tubulin (Sigma T5168) (dilution between 1/400 and 1/500) in 1% (v/v) goat serum in CB for 60 min at room temperature. […] Quantification of the presence of EB3 clusters at the cell periphery or well-defined MTOC was performed by counting the number per cell in about 100 cells selected at random. […] For MTOC quantification, cells and MTOC were graded as shown in Figure 4C′ where organisation is defined as (1) not visible or poorly structured organisation; (2) visible but poorly formed; (3) visible and defined; and (4) well defined and extensive regions. […]

tubulin = test: Co-immunoprecipitation, COS-7 S10 lysates; assay type: binding, monkey; conditions: S100P-induced COS-7 S10 lysates, 0.5 mM CaCl2
Procedure: For co-immunoprecipitations, S100P-inducible COS-7 cells were incubated with 1 µg/ml doxycycline for 16 h and lysed in RIPA buffer (Thermo Fisher Scientific, Loughborough, U.K.) with 0.5 mM CaCl2. After sonication and centrifugation as described above, control antibody (rabbit IgG from Sigma), anti-tubulin or anti-S100P were added to three separate tubes containing 0.7 ml each of cell lysate and incubated overnight at 4°C. Then 100 µl Dynabeads® ProteinG (Thermo Fisher Scientific) were added to each tube and the contents incubated for 4 h at 4°C. After extensive washings with washing buffer (10 mM Tris–HCl, pH 7.4, 150 mM NaCl, 1% (v/v) Triton X-100, 0.2 mM sodium orthovanadate), the bound proteins were eluted with 0.1 M glycine pH 2.5 and then subjected to Western blotting using the paired antibodies together with a sample of the input and the last wash.

Rama 37-T25 cells = test: S100P-enhanced cell migration, Rama 37-T25; assay type: cell-based, rat; conditions: Rama 37-T25, doxycycline 1 µg/ml, 24 h
Excerpt: as §1

[1] = test system: nonmuscle myosin (NM) isoforms; conditions: ref [10]; cited from earlier work
Excerpt: Overexpression of S100P promotes breast cancer metastasis in animals and elevated levels in primary breast cancers are associated with poor patient outcomes.

[2] = test system: tubulin polymerisation in HeLa-A19 cells; test: In vivo tubulin polymerisation assay, HeLa / HeLa-A19; assay type: cell-based, human; conditions: HeLa-A19, 4 h after second release, 1 µg/ml doxycycline
Procedure: HeLa and S100P-inducible HeLa, COS-7 and S100P-inducible COS-7 cells were routinely cultured with or without doxycycline (1 µg/ml) and treated with 33 µM nocodazole for 24 h to synchronise the cells. Then the nocodazole was washed away (First release) and the synchronised cells were cultured in normal medium for 4 h to allow them to complete cell division. The nocodazole was then added again for 4 h to dissociate all the MTs. After this time, nocodazole was again removed by extensive washings (Second release) and tubulin was allowed to polymerise in the interphase of the cell cycle for different times. The cells were treated with buffer (10 mM Tris–HCl, 150 mM KCl, pH 7.4, 2% (v/v) Triton X-100) and the Triton-X100-insoluble tubulins (representing the newly formed MTs) were solubilised in Sample Buffer and quantified by Western blotting. To test the effect of tubulin-derived peptides, 20 µM T-DIC, T-DLV, T-IMN and tag-peptide alone (Supplementary Table S3) in 0.25% (v/v) DMSO as solvent, as well as the solvent control 0.25% (v/v) DMSO were added immediately after the second release in Sample Buffer and quantified at the different time points by Western blotting.

α,β-tubulin = test: SPR binding of S100P to immobilised α,β-tubulin; design: species or system human; conditions: for Kd: mean ± SE, 3 experiments
Excerpt: The coding sequences for full length (human) α-tubulin and for N-terminal and C-terminal halves of α or β-tubulin were generated using PCR with specific primers shown in Supplementary Table S1 and sub-cloned into pET16(b) for expressing and purifying His-tagged full-length α-tubulin and His-tagged tubulin fragments in E. coli, as described previously. β-tubulin was purchased from Abcam.
For SPR binding assays, α,β-tubulin proteins described earlier were immobilised on a carboxymethylated dextran surface of a CM5 chip using BS^3 for use in Biocore X100. Recombinant S100P produced as described previously was used as a ligand in different concentrations at 20, 50, 100, 200, 1000, 2000 nM for calculation of the equilibrium dissociation constant (Kd) from the association/dissociation rate constants and from the extent of binding near equilibrium (Supplementary Table S2), as described previously. To detect the effects of tubulin peptides on the interaction of tubulin, different concentrations of tagged and untagged peptides were mixed with 1 µM S100P first and the mixtures were then applied to the tubulin-coated chip. The relative changes in kinetics and binding extents with different peptides were calculated using software provided by the manufacturer.

B1: S100P: recombinant or doxycycline-induced overexpressed S100P protein (protein)
chain: MTELETAMGMIIDVFSRYSGSEGSTQTLTKGELKVLMEKELPGFLQSGKDKDAVDKLLKDLDANGDAQVDFSEFIVFVAAITSACHKYFEKAGLK
S100P-enhanced cell migration (HeLa-A3 cells): 3–4 folds | reduction in percentage of cells with EB3 bundles at periphery (COS-7 S10 cells): 52% | reduction in percentage of well-defined MTOCs per cell (COS-7 S10 cells): 31% | complex with tubulin in immunoprecipitates (tubulin): immunoprecipitates produced with anti-S100P also contained tubulin | S100P-enhanced cell migration (Rama 37-T25 cells): 3–4 folds | order of interaction with NM isoforms [1]: IIA > IIC > IIB | reduction in tubulin polymerisation on S100P induction [2]: 31% and ~30% | calcium concentration above which complex starts to form (α,β-tubulin; 0.15 M NaCl, 2 µM S100P): above 30 µM | calcium concentration saturating the reaction (α,β-tubulin; 0.15 M NaCl, 2 µM S100P): 0.2 mM | Kd (α,β-tubulin; Kd from association/dissociation rate constants, 150mM NaCl, 0.5mM CaCl2, single cycle, S100P 20-2000 nM, CM5 chip, read-out: Kinetic dissociation constant Kd): 120 ± 12 nM | Kd (α,β-tubulin; Kd from rate constants, 150mM NaCl, 0.5mM CaCl2, multiple cycles, read-out: Kinetic dissociation constant Kd): 210 ± 90 nM | Kinetic dissociation constant Kd (α,β-tubulin; Kd from rate constants, 150M NaCl (so in the source), EDTA 5mM, multiple cycles, 1L = incalculably large): 1 L | Kd (α,β-tubulin; Kd from rate constants, 300M NaCl (so in the source), 0.5mM CaCl2, multiple cycles, read-out: Kinetic dissociation constant Kd): 890 ± 90 nM | Kd (α,β-tubulin; Kd from rate constants, 500M NaCl (so in the source), 0.5mM CaCl2, multiple cycles, read-out: Kinetic dissociation constant Kd): 8300 ± 700 nM | calcium concentration at saturation of binding (α,β-tubulin; SPR, Figure 2F-H): 200 µM | Equilibrium dissociation constant Kd (α,β-tubulin; at or near equilibrium, 150M NaCl (so in the source), EDTA 5mM, multiple cycles, 1L = incalculably large): 1 L | Kd (α,β-tubulin; at or near equilibrium, 300M NaCl (so in the source), 0.5mM CaCl2, multiple cycles, read-out: Equilibrium dissociation constant Kd): 1100 ± 160 nM

— paper PMC7108782, “Direct interaction of metastasis-inducing S100P protein with tubulin causes enhanced cell migration without changes in cell adhesion” (Biochemical Journal, 2020)
